Laboratory results taken from publication doi:10.1101/751404, “HOPS recognizes each SNARE, assembling ternary trans-complexes for sudden fusion upon engagement with the 4th SNARE” (bioRxiv, 2019).

Target: T1, Qa-SNARE Vam3, full-length, wild-type (S. cerevisiae, UniProt Q12241 1-283)
T1 construct: Vam3, vacuolar Qa-SNARE, S. cerevisiae, full-length wild type with its transmembrane domain (residues 265-283); also called GST-Qa; source: isolated as described (Mima et al., 2008; Schwartz and Merz, 2009; Zucchi and Zick, 2011), reconstituted into proteoliposomes
T1 sequence (looked up): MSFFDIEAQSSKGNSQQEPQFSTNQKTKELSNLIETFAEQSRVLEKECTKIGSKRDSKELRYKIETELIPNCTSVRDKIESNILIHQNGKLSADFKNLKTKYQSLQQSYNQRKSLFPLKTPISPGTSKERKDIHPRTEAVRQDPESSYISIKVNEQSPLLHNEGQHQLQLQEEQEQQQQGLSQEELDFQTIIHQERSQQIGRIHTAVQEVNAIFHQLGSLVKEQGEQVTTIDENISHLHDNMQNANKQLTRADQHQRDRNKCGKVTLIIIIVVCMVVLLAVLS
Experiment: co-IP; proteoliposomes with Ypt7 and R mixed with proteoliposomes with Ypt7, Qa and Qb, with or without 50 nM HOPS and 4 μM Qc, 33 min; solubilised in modified RIPA buffer with 5 μM GST-R; anti-Qa antibody and protein A magnetic beads, 4°C, 2 h; immunoblot with antibodies to R, Qa and Vps33
Conditions: both partners purified

- binding result: binds
B1: R-SNARE (Nyv1), full-length, wild-type (natural protein, S. cerevisiae, UniProt Q12255 1-253, looked up)
chain: MKRFNVSYVEVIKNGETISSCFQPFQKNENYGTITSANEQITPVIFHNLIMDMVLPKVVPIKGNKVTKMSMNLIDGFDCFYSTDDHDPKTVYVCFTLVDMPKILPIRILSGLQEYESNATNELLSSHVGQILDSFHEELVEYRNQTLNSSGNGQSSNGNGQNTISDIGDATEDQIKDVIQIMNDNIDKFLERQERVSLLVDKTSQLNSSSNKFRRKAVNIKEIMWWQKVKNITLLTFTIILFVSAAFMFFYLW
notes: Nyv1, vacuolar R-SNARE, S. cerevisiae, full-length wild type with its membrane anchor; source: isolated as described (Mima et al., 2008; Schwartz and Merz, 2009; Zucchi and Zick, 2011), buffer exchanged into β-octylglucoside, reconstituted into proteoliposomes
